Molecular target: CXCR7-RLuc (human) (UniProt P25106)
UniProt P25106, sequence (P25106 whole entry): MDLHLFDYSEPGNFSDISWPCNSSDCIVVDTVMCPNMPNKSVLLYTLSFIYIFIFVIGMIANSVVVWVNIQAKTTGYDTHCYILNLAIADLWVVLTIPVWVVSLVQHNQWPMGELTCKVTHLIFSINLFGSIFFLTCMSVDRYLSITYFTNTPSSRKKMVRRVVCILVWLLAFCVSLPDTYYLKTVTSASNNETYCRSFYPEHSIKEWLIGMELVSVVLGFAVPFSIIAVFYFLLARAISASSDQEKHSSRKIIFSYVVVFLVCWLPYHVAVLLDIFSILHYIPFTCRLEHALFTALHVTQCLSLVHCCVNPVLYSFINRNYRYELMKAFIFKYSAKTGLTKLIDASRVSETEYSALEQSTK

B1: CXCL11 (I-TAC) (ligand)
chain: FPMFKRGRCLCIGPGVKAVKVADIEKASIMYPSNNCDKIEVIITLKENKGQRCLNPKSKQARLIIKKVERKNF
  pEC50 of CXCL11 for β-arrestin1-YFP recruitment to CXCR7-RLuc (BRET, HEK293T): 8.7
  pEC50 of CXCL11 for β-arrestin2-YFP recruitment to CXCR7-RLuc (BRET, HEK293T): 8.5

From article PMC3311620
